Data taken from article PMC7511442.

Legend:
[1] = target: GFP-GiKIN14a (recombinant full-length GiKIN14a with an N-terminal GFP) (Giardia intestinalis); assay: hydrodynamic analysis
[2] = target: GFP-GiKIN14a-Δtail (Giardia intestinalis); assay: hydrodynamic analysis
[3] = target: GFP-GiKIN14a-Δtail (Giardia intestinalis); assay: single-molecule photobleaching

| stoichiometry N [1] | Substance | stoichiometry N [2] | stoichiometry N [3] |
| --- | --- | --- | --- |
| 2 | GFP-GiKIN14a (recombinant full-length GiKIN14a with an N-terminal GFP) (natural protein) |  |  |
|  | GFP-GiKIN14a-Δtail (domain or fragment) | 2 | 2 |
